This note sets out measurements from the nanobody polyreactivity screen of Harvey et al. (2022).

The data set can be described thus: yeast display, Sf9 membrane polyspecificity reagent, FACS + sequencing; frameworks hold sequencing errors. In a few lines:
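Nanobodies from a synthetic yeast display library (Saccharomyces cerevisiae BJ5465), induced 36–48 hours with galactose, were stained 1 hour at 4 °C with 10% biotinylated, detergent-solubilized Sf9 membrane reagent, enriched on streptavidin microbeads, then FACS-sorted. Anti-HA (expression) and streptavidin (reagent binding) fluorescence set low and high (top ~1%) gates. Polyreactivity labels come from the gate of origin. Genes were colony-PCR amplified, MiSeq 2 × 250 sequenced and filtered by CDR length.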
On to “QVQLVESGGGLVQAGGSLRLSCASSGRTSVINAMGWYRQAPGKERELVATITWSGASTYYADSVKGRFTISRDNAKNTVYLQMNSLKPEDTAVYYCNAESLYTPYNDTSLTVEYGYWGQGTQVTVSS”, for which the “polyreactivity (PSR sort gate)” value is listed as “low polyreactivity”. The entry for “QVQLVESGVGLVQAGGSLRLSCAASGSIFYNYAMGWYRQAPGKEREFVAAISWSGDTTYYADSVKGRFTISRDNAKNTVYLQMNSLKPEDTAVYYCAAESYIWFWRPYYYWGQGTQVTLSS” is “low polyreactivity”; for “QVQLVESGGGLVKAGGILRLSCAASGSTFWKYAMGWYRQAPGKERELVAAINSGGSTYYADSVKGRFTISRDNAKNTVYLQMNSLKPEDTAVYYCAAVYVDRRKRSYYWGQGTQVTVSS” it is “high polyreactivity”; for “QVQLVESGGGLVQAGGSLRLSCAASGFIFEPYAMGWYRQAPGKERELVAAISSGGSTYADSVKGRFTISRDNAKNTVYLQMISLKPEDTAVYYCAADSYYSVWGFYYWGQGTQVTVSS” it is “low polyreactivity”. The entry for “QVQLVESGGGLVQAGGSLRLSCAASGSIFVYYAMGWYRQAPGKERELVATIRGSGGSTYYADSVKGRFTISRDNAKNTVYLQMNSLKPEDTAVYYCAATIKYGGRWYGSWGQGTQVTVSS” is “high polyreactivity”; for “QVQLVESGGGLVQAGGSLRLSCAASGSIFEEYAMGWYRQAPGKERELVARIDESGGSTYYADSVKGRFTISRDTAKNTVYLQMNSLKPEDTAVYYCAAERYSDSWGYYSVDEGSWEMDYWGQGTQVTVSS” it is “low polyreactivity”; for “QVQLVESGGGLLQAGGSLRLSCADSGSTFSRYSMGWYRQAPGKEREFVAAISRSGASTYYADSVKGRFTISRDNEMNTVNLQMNSLKPEDTAVYYCNTRRWRFVKYGYWGQGTQVTVSS” it is “high polyreactivity”.

Take “QVQLVESGGGLVQAGGSLRLSCAASGRTLSRYTMGWYRQAPGKERELVAAISTSGSTYYADSVKGRFTISRDNAKNTVYLQMNSLKPEDTAVYYCYAVRRYLQYATGYDYWGQGTQVTVSS”: the “polyreactivity (PSR sort gate)” value is recorded as “high polyreactivity”. As for “QVQLVESGGGLVQAGGSLRLSCAASGIIFFKYAKGWYRQAPGKEKELVAAITSGGSTYYADSVKGRFTISRDNAKHTVYLQMNSLKPEDTAFYYCAAAGGRFIRYGYWGQGTQVTVSS”, the entry is “high polyreactivity”; as for “QVQLVESGGGLVQAGGSLRLSCAASGRTFKYYAMGWYRQAPGKERELVAAISRGGSTNYADSVKGRFTISRDNAKNTVYLQVNSLKPEDTAVYYCARRYIVQSGDDYWGQGTQVTVSS”, “low polyreactivity”; as for “QVQLVESGGGLVQAGGSLRLSCAASGITFGNYAMGWYRQAPGKDRELVAAITGSGGRTYYADSVKGRFTISRDNAKNTVYLQMNSLKPEDTAVYYCNRRQYGRKKQYDYWGQGTQVTVSS”, “low polyreactivity”. As for “QVQLVESGGGLVQAGGSLRLSCAASGSFLVYYAMGWYRQAPGKERELVAAISWRGDSTSYADSVKGRFTISRDNAKNTVYLQMNSLKPEETAVYYCATAHDYAFYRYWYVPSEYNYWGQGTQVTVSS”, the entry is “low polyreactivity”; as for “QVQLVESGGGLVQAGGSLRLSCAASGLTFYIYAMGWYRQAHGKERELVASISSSGGITYYADSVKGRFTISRDNAKNTVYLQMNSLKPEDTAVYYCAATYSHRRGDYWGQGTQVTVSS”, “high polyreactivity”.

With “QVQLVESGGGLVQAGGSLRLSSAASGFTFFYYAMGWYRQAPGKERELVAAISASGGSTSYADSVKGRFTISRDNAKNTVYLQMNSLKPEDTAVYYCAARVYSVRSGYYYWGQGTQVTVSS”, the “polyreactivity (PSR sort gate)” value is listed as “high polyreactivity”. As for “QVQLVESGGGLVQAGGSLRLSCAASGFIFLGYAMGWYRQAPGKEREFVAGITITGGSTYYADSVKGRFTISRDNAKNTVYLQMNSLKPEDTAVYYCNAESNLYRRRRNYWGQGTQVTVSS”, the entry is “low polyreactivity”; as for “QVQLVESGGGLVQAGGSLRLSCAASGSIFAYYTMGWYRQAPGKERELVATISSGDITNYADSVKGRFTISRDNAKNTVYLQMNSLKPEDTAVYYCAAAELTSYYRTFIHQDYDYWGQGTQVTVSS”, “low polyreactivity”; as for “QVQLLESGGGLVQAGGSLRLSCAASGRILTGYAMGWYRQAPGKERELVASINWRGGSTYYADSVKRRFTISRDNAKNTVYLQLNSLKPEDTAVYYCAARVRVTGTYYTKYDYWGQGTQVTVSS”, “high polyreactivity”. The entry for “QVQLVESGGGLVQAGGSLRLSCAASGSTFVYNAMGWYRQAPGKEREFVAVINWSGGRTYADSVKGRFTISRDNAKNTVYLQMNSLKPEDTAVYYCNAERRTYRVALQYRRYDYWGQGTQVTVSS” is “high polyreactivity”; for “QVQLVESGGGLLQAGGSLRLSCAASGSIFQYKAMGWYRQAPGKERELVAAINGGGSTYYADSVKGRFTISRDNEKNTVYLQMNSLKPEYTAVYYCAADGGAYYYRGPGKFGIEDSWGQGTQVTVSS” it is “low polyreactivity”. The entry for “QVQLVESGGGLVQAGGSLRLTCAASGRIFGVYVMGWYRQAPGKERELVAAISWGGGTYYADSVKGRFTISRDNAKNNVYLQMNSLKPEDTSVYYCNAESYYTMYYWGQGTQVNVSS” is “low polyreactivity”; for “QVQLVESGGGLVQAGGSLRLSCAASGSIFYLNAMGWYRQAPGKERELVATISNGGSTNYADSVKGRFTISRDNAKNTVYLQMNSLKPEDTAVYYCAAASGGTVVGEGDYWGQGTQVTVSS” it is “low polyreactivity”. As for “QVQLVESGGGLVQAGGSLRLICAASGIIFPSYAMGWYRQAPGKERELVAGISLSGGSTYYADSVKGRFTISRDNAKNTVYLQMNSLKPEDTAVYYCDTRNHYFRALRYGYWGQGTLVTVSS”, the “polyreactivity (PSR sort gate)” value is listed as “high polyreactivity”.

Turning to “QVQLVESGGGLVQAGGSLRLSCAASGSTFYVYAMGWYRQAPGKEREFVAAISFSSGSTYYADSVKGRFTISRDNAKNTVYLQMNMMNQEDTAVYDCAARYRYPRYIGYGYGGAFVYWGQGTQVTVSS”, the “polyreactivity (PSR sort gate)” value is given as “high polyreactivity”. As for “QVQLVESGGGLVQAGGSLRLSCAASGRTFSYYTMGWYRQAPGKERQLVARISNRGTNTYYADSVKGRFTISRDNAKNTVYLQMNSLKPEDTAVYYCAKYYYTSIVGYDSWGQGTQVTVSS”, the entry is “low polyreactivity”; as for “QVQLVESGGALVQAGGSLRLSCAASGSIFVSYAKGWSRPAPGKERELLATITTSTGSTYADSVKGRFTISRDNAKNTVYLQMNSLKPEDTAVYYCAARYQPWLKYDFDSWGQGTQVTVSS”, “low polyreactivity”; as for “QVQLVESGVGLVQAGGSLRLSCAASGRIFFNNAMGWYIQAPGKERELVAGITSGSSTNYADSVKGRFTISRDNAKNTVYLQMNSLKPEDTAVYYCNAGDFERDVVVFIQHGGYYWGQGTQVTVSS”, “low polyreactivity”. As for “QVQLVESVGGLVQAGGSLRLSCAASGSIFRSYAMGWYRQAPGKERELVAAISWSGASTYYADSVKGRFTISRDNAKNTVYLQMNSLKPEDTAVYYCAARPRYWRWYSGDYWGQGTQVTVSS”, the entry is “high polyreactivity”; as for “QVQLVESGGGLVQAGGSLRLSCAASGSTFTVNDMGWYRQAPGKERELVAAITQRDGRTFYADSVKGRFTISRDNAKNTVYLQINSLKPEDTGVYYCAADYGWYTYGDYDYWGQGTQVTVSS”, “low polyreactivity”; as for “HVQLVESGGGLVQAGARLRLSCAASGITFFYYAMGWYRQAPGKERELVAAINWSGRTYYADSVKGRFTISRDNAKNTVYLQMNSLKPEDTAVDYCAAVTYGPGVSGMDYWGQGTQVTVSS”, “low polyreactivity”. As for “QVQLVESGGGLVQAGGSLRLSCAASGYTFALYAMGWYRQAPGKERELVAAITDSDGSTYADSVKGRFTISRDNAKNTVYLQMNSLKPEDNAVYYCAGRDPHLQGSSYLSYLTMDYWGQGTQVTVSS”, the entry is “low polyreactivity”; as for “QVQLVESGGGLVQAGGSLRLSCAASGSTFYAYAMGWYRQAPGKERELVAAIRRSTGRTYYADSVKGRFTISRDNAKNTVYLQMNSLKPEDTAVYYCAASYPVDYYDMYYWGQGTQVTVSS”, “high polyreactivity”; as for “QVQLVESGGGLVQAGGSLRLSCAASGIILRRYAMGWYRQAPGKERELVARISYRGGRTNYADSVKGRFTISRDNAKNTFYLEMNSLKPEDTAVYYCDAVDWYYHEGTAYNYWGQGTQVTVSS”, “high polyreactivity”. On to “QVQLVESGGVLVQAGGSLRLICAASGSTFEFYAMGWYRQEPGKERELVARITWNGGNTYADSVKGRYTISRDNAKNNVYLQMNSLKPEDTSVYYCATDYVVGFYYWGQGTQVTVSS”, for which the “polyreactivity (PSR sort gate)” value was “low polyreactivity”. The entry for “QVQLVESGGGLVQAGGSLRLSCAASGSIFTPYAMGWYRQAPGKERELVAAITSGGSTYADSVKGRFTISRDNAKNTVYLQMNSLKPEDTAVYYCAADRSYVYAGADMYYWGQGTQVTVSS” is “low polyreactivity”. The entry for “QVQLEESGGGLVQAGGSLRLSCAASGSTFLRYAIGWYRQAPGKEMELVAAITASGGSTFYADSVKGRFTISRDYAKNTVYLQMNSLKPEDTPVYYCAADVSYIGKYSHDLWIYGYYYWGQGTQVTVSS” is “low polyreactivity”. As for “QVQLVESGGGLVQAGGSLRLSCAASGFTFTNYAMGWYRQAPGKERELVAAINSSGSTNYADSVKGRFTISRDNAKNTVYLQMNSLKPEDTAVYYCAVDYSYWVHGFWDDYDYWGQGTQVTVSS”, the entry is “low polyreactivity”; as for “QVQLVESGGGLVQAGGSLRLSCAASGFIFPVYAMGWYRQAPGKERELVAAIRRGGSTNYADSVKGRFTISRDNAKNTVYLQMNSLKPEDTAVYYCAVEYQSPDDYWGQGTQVTVSS”, “low polyreactivity”. As to “QVQLVESGGGLVQAGGSLRLSCAASGSILYLNAMGWYRQAPGKERELVAAITWSGGSTSYADSVKGRFTISRDNAKNTVYLQMISLKPEDTAVYYCAAVRRGYGGVYYAGGYWGQGTQVTVSS”, the “polyreactivity (PSR sort gate)” value is given as “low polyreactivity”. As for “QVQLVESGGGLVQAGGSLRLSCASSGLILAPNDMGWYRQAPGKERELVAAITFRGVRTYYADSVKGRFTISRDNAKNNVYLQLNSLKPEDTAVYYCAAAVSKHYPYNYWGQGTQVSVSS”, the entry is “high polyreactivity”; as for “KVQLVESGGGLVQAGGSLRLSSADSGRIYVGYAIVWYRQEPGKEMEMVAGISRSGDSTYYADSVKGRFTISRDNAKNTVYLQMNSLKPEDTAVYYCAARINYWGYYYWGQGSQVTVSS”, “high polyreactivity”.
